Results as given in the supplement of paper PMC10201428.
± gives the standard deviation of the averaged measurements.

B1: library; a variant is named by its letters at N, in order (parent)
chain: AATGTTGTTGATGCAACCATAAAGTGATATTTAATAATTATTTATAATCAGCAACTTAACCACAAAACAACCATATATTGATATNTCACAAAACAACCATAANTTGATATTTTTGTGAATCGAGTATTTCAGCAAAACTACTGCAGTAAGAA

How the values were obtained:
[1] = variants of: B1; test: relative integration efficiency (T-LR orientation) vs wild-type transposon end (log2 (normalized fold change)); transposon end mutated: left end; higher = more efficient transposition; settings: with VchCAST RNA-guided transposition machinery (E. coli BL21(DE3) host, lacZ target)
Outline: (§1)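 Relative integration efficiency is a fold change of output over input barcode abundance, normalised to reference barcodes and log-transformed. Input plasmids and genomic integration junctions were PCR-amplified and Illumina-sequenced from E. coli BL21(DE3) co-transformed with a T7-driven effector plasmid and pUC57 donor pools of 1549 left-end or 1849 right-end transposon variants. Plating was done with 0.1 mM IPTG at 37°C for 18 h, with two biological output replicates and four reference barcodes.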

[2] = variants of: B1; test: relative integration efficiency (T-RL orientation) vs wild-type transposon end (log2 (normalized fold change)); transposon end mutated: left end; higher = more efficient transposition; settings: with VchCAST RNA-guided transposition machinery (E. coli BL21(DE3) host, lacZ target)
Outline: as §1

Variant | relative integration efficiency (log2) [1] | relative integration efficiency (log2) [2]
AATGTTGTTGATGCAACCATAAAGTGATATTTAATAATTATTTATAATCAGCAACTTAACCACAAAACAACCATATATTGATTACTCACAAAACAACCATAAGTTGATATTTTTGTGAATCGAGTATTTCAGCAAAACTACTGCAGTAAGAA [CG A83T T84A] | -0.352 ± 0.65 | -0.194 ± 0.16
AATGTTGTTGATGCAACCATAATGTGATATTTAATAATTATTTATAATCAGCAACTTAACCACAAAACAACCATATATTGATATCTCACAAAACAACCATAAGTTGATATTTTTGTGAATCGAGTATTTCAGCAAAACTACTGCAGTAAGAA [CG A23T] | 0.0168 ± 0.12 | 0.086 ± 0.23
AATGTTGTTGATGCAACCATAAAGTGATATTTAATAATTATTTATAGTCAGCAACTTAACCACAAAACAACCATATATTGATATCTCACAAAACAACCATAAGTTGATATTTTTGTGAATCGAGTATTTCAGCAAAACTACTGCAGTAAGAA [CG A47G] | -0.05 ± 0.31 | -0.131 ± 0.15
AATGTTGTTGATGCAACCATAAAGTGATATGTAATAATTATTTATAATCAGCAACTTAACCACAAAACAACCATATATTGATATCTCACAAAACAACCATAAGTTGATATTTTTGTGAATCGAGTATTTCAGCAAAACTACTGCAGTAAGAA [CG T31G] | -0.35 ± 0.1 | -0.221 ± 0.21
AATGTTGTTGATGCAACCATAAAGTGATATTTAATAATTATTTATAATCAGCAACTTAACCACAAAACAACCATATATTGATATCTCACAAAACAACCATAAGTTGATTATTTTGTGAATCGAGTATTTCAGCAAAACTACTGCAGTAAGAA [CG A109T T110A] | -0.674 ± 0.43 | -0.271 ± 0.27
AATGTTGTTGATGCAACCATAAAGTGATATTTAATAATTATTTATAATCAGCAACTTAACCACAAAACAACCATATATTGATCTCTCACAAAACAACCATAAGTTGATATTTTTGTGAATCGAGTATTTCAGCAAAACTACTGCAGTAAGAA [CG A83C] | 0.152 ± 0.25 | 0.0829 ± 0.27
AATGTTGTTGATGCAACCATAAATGTCTATTTAATAATTATTTATAATCAGCAACTTAACCACAAAACAACCATATATTGATATCTCACAAAACAACCATAAGTTGATATTTTTGTGAATCGAGTATTTCAGCAAAACTACTGCAGTAAGAA [CG G24T T25G G26T A27C] | -2.96 ± 1.7 | -2.31 ± 0.84
TTATATGTTGATGCAACCATAAAGTGATATTTAATAATTATTTATAATCAGCAACTTAACCACAAAACAACCATATATTGATATCTCACAAAACAACCATAAGTTGATATTTTTGTGAATCGAGTATTTCAGCAAAACTACTGCAGTAAGAA [CG A1T A2T T3A G4T T5A] | -0.359 ± 0.037 | -0.373 ± 0.043
AATGTTGTTGATGCACCCATAAATTGATATTGCATAATTATTTATAATCAGCAACTTAACCACAAAACACCCATAAATTGATATTGCACAAAACACCCATAAATTGATATTGCTGTGAATCGAGTATTTCAGCAAAACTACTGCAGTAAGAA [TA A16C G24T T32G A33C A70C T76A T86G A96C T112G T113C] | -1.11 ± 0.096 | -0.726 ± 0.16
AATGTTGTTGATGCAACCATAAAGTGATATTTAATAATTATTTATAATCAGCAACTTAACCACAAAACAACCAGCGCTTGATATCTCACAAAACAACCATAAGTTGATATTTTTGTGAATCGAGTATTTCAGCAAAACTACTGCAGTAAGAA [CG T74G A75C T76G A77C] | -2.54 ± 1.3 | -1.95 ± 0.99
